Data: patent US20120207760A1

Experiments:
Conditions in all cases: remark: other sources report otherwise
[1] = target: T1, recombinant homotrimeric HA, A/Solomon Islands/3/06 H1N1 (Influenza A virus A/Solomon Islands/3/06 (H1N1)); test: trimeric HA microarray, transfection set 3
[2] = target: T2, recombinant homotrimeric HA, A/Egypt/3300-NAMRU3/08 H5N1 (Influenza A virus A/Egypt/3300-NAMRU3/08 (H5N1)); test: trimeric HA microarray, transfection set 3
[3] = target: T3, recombinant homotrimeric HA, A/Wisconsin/67/05 H3N2 (Influenza A virus A/Wisconsin/67/05 (H3N2)); test: trimeric HA microarray, transfection set 3
[4] = target: T4, recombinant homotrimeric HA, A/Japan/305/57 H2N2 (Influenza A virus A/Japan/305/57 (H2N2)); test: trimeric HA microarray, transfection set 3
[5] = target: T5, recombinant homotrimeric HA, A/Hong Kong/1073/99 H9N2 (Influenza A virus A/Hong Kong/1073/99 (H9N2)); test: trimeric HA microarray, transfection set 3
[6] = target: T6, recombinant homotrimeric HA, A/northern shoveler/California/HKWF115/07 (Influenza A virus A/northern shoveler/California/HKWF115/2007 (H6N1)); test: trimeric HA microarray, transfection set 3
[7] = target: T7, recombinant homotrimeric HA, A/Vietnam/1203/04 H5N1 (Influenza A virus A/Vietnam/1203/04 (H5N1)); test: trimeric HA microarray, transfection set 3
[8] = target: T8, recombinant homotrimeric HA, A/chicken/Vietnam/NCVD-016/08 H5N1 (Influenza A virus A/chicken/Vietnam/NCVD-016/08 (H5N1)); test: trimeric HA microarray, transfection set 3
[9] = target: T9, recombinant homotrimeric HA, A/common magpie/Hong Kong/5052/07 H5N1 (Influenza A virus A/common magpie/Hong Kong/5052/07 (H5N1)); test: trimeric HA microarray, transfection set 3
[10] = target: T10, recombinant homotrimeric HA, A/California/4/09 H1N1 (Influenza A virus A/California/4/09 (H1N1)); test: trimeric HA microarray, transfection set 3
[11] = target: recombinant homotrimeric HA, A/Hong Kong/2108/03 H9N2 (Influenza A virus A/Hong Kong/2108/03 (H9N2)); test: trimeric HA microarray, transfection set 3
[12] = target: T11, recombinant homotrimeric HA, A/South Carolina/1/18 H1N1 (Influenza A virus A/South Carolina/1/18 (H1N1)); test: trimeric HA microarray, transfection set 3
[13] = target: recombinant homotrimeric HA, A/Indonesia/5/05 H5N1 (Influenza A virus A/Indonesia/5/05 (H5N1)); test: trimeric HA microarray, transfection set 3
[14] = target: T12, recombinant homotrimeric HA, A/swine/Ontario/01911-2/99 H4N6 (Influenza A virus A/swine/Ontario/01911-2/99 (H4N6)); test: trimeric HA microarray, transfection set 3
[15] = target: recombinant homotrimeric HA, A/duck/Yangzhou/02/05 H8N4 (Influenza A virus A/duck/Yangzhou/02/2005 (H8N4)); test: trimeric HA microarray, transfection set 3
[16] = target: recombinant soluble homotrimeric HA of A/Solomon Islands/3/06 (H1N1) (Influenza A virus A/Solomon Islands/3/06 (H1N1)); test: microarray, BCC supernatant IgG, trimeric HA
[17] = target: recombinant soluble homotrimeric HA of A/duck/Yangzhou/02/05 (H8N4) (Influenza A virus A/duck/Yangzhou/02/2005 (H8N4)); test: microarray, BCC supernatant IgG, trimeric HA
[18] = target: T1, recombinant homotrimeric HA, A/Solomon …; test: trimeric HA microarray, transfection set 5
[19] = target: T3, recombinant homotrimeric HA, …; test: trimeric HA microarray, transfection set 5
[20] = target: T4, recombinant homotrimeric HA, …; test: trimeric HA microarray, transfection set 5
[21] = target: T10, recombinant homotrimeric HA, …; test: trimeric HA microarray, transfection set 5
[22] = target: recombinant soluble homotrimeric HA of A/northern shoveler/California/HKWF115/07 (Influenza A virus A/northern shoveler/California/HKWF115/2007); test: microarray, BCC supernatant IgG, trimeric HA
[23] = target: recombinant soluble homotrimeric HA of A/California/4/09 (H1N1) (Influenza A virus A/California/4/09 (H1N1)); test: microarray, BCC supernatant IgG, trimeric HA
[24] = target: recombinant soluble homotrimeric HA of A/chicken/Vietnam/NCVD-016/08 (H5N1) (Influenza A virus A/chicken/Vietnam/NCVD-016/08 (H5N1)); test: microarray, BCC supernatant IgG, trimeric HA
[25] = target: recombinant soluble homotrimeric HA of A/Wisconsin/67/05 (H3N2) (Influenza A virus A/Wisconsin/67/05 (H3N2)); test: microarray, BCC supernatant IgG, trimeric HA
[26] = target: T1, recombinant homotrimeric HA, A/Solomon …; test: trimeric HA microarray, transfection set 2
[27] = target: T2, recombinant homotrimeric HA, …; test: trimeric HA microarray, transfection set 2
[28] = target: T3, recombinant homotrimeric HA, …; test: trimeric HA microarray, transfection set 2
[29] = target: T4, recombinant homotrimeric HA, …; test: trimeric HA microarray, transfection set 2
[30] = target: T5, recombinant homotrimeric HA, A/Hong …; test: trimeric HA microarray, transfection set 2
[31] = target: T6, recombinant homotrimeric HA, A/northern …; test: trimeric HA microarray, transfection set 2
[32] = target: T7, recombinant homotrimeric HA, …; test: trimeric HA microarray, transfection set 2
[33] = target: T8, recombinant homotrimeric HA, …; test: trimeric HA microarray, transfection set 2
[34] = target: T9, recombinant homotrimeric HA, A/common …; test: trimeric HA microarray, transfection set 2
[35] = target: T10, recombinant homotrimeric HA, …; test: trimeric HA microarray, transfection set 2
[36] = target: T11, recombinant homotrimeric HA, A/South …; test: trimeric HA microarray, transfection set 2
[37] = target: T12, recombinant homotrimeric HA, …; test: trimeric HA microarray, transfection set 2
[38] = target: recombinant homotrimeric HA, A/Netherlands/219/03 H7N7 (Influenza A virus A/Netherlands/219/03 (H7N7)); test: trimeric HA microarray, transfection set 3

B1: TCN-530 (5248_H10a) (antibody, V domains shown)
VH: QVQLVQSGAEVRKPGSSVKVSCKASGGPFMSYAIGWVRQAPGQGLEWMGGINPVFGRPHYAQKFQGRVTIATDDSTKTSYMELSSLTSEDTGMYYCASRYSRSSPGTFESWGQGTLVTVSS
VL: EIVMTQFPATLSVSPGERVTLSCRASQSVSNNLAWYQQKPGQPPRLLIYDASTRATGVPAKFSGTGSGTEFTLSISSLQSEDFAVYYCQQYHNWPPSYSFGLGTKLEIK
Trimeric HA Binding RLU [1]: 13800 RLU
Trimeric HA Binding RLU [2]: 25500 RLU
Trimeric HA Binding RLU [3]: 3050 RLU
Trimeric HA Binding RLU [4]: 5170 RLU
Trimeric HA Binding RLU [5]: 10200 RLU
Trimeric HA Binding RLU [6]: 23500 RLU
Trimeric HA Binding RLU [7]: 25200 RLU
Trimeric HA Binding RLU [8]: 18000 RLU
Trimeric HA Binding RLU [9]: 5580 RLU
Trimeric HA Binding RLU [10]: 21200 RLU
Trimeric HA Binding RLU [11]: 44 RLU
Trimeric HA Binding RLU [12]: 17200 RLU
Trimeric HA Binding RLU [13]: 25500 RLU
Trimeric HA Binding RLU [14]: 123 RLU

B2: TCN-529 (5297_H01) (antibody, V domains shown)
VH: QITLRESGPTLVKPTQTLTLTCTFSGFSLSTNGVNVGWIRQPPGKALEWLALIYWDDDKRYSPSLKRRLTITKDTSKNQVVLTLTNMDPVDTATYYCAHRPDFYGDFEYWGPGTLVTVSS
VL: QSALTQPASVSGSPGQSITISCTGSSSDIGGYNYVSWYQQHPGKAPKLMIYDVNNRPSGVSNRFSGSKSGNTASLTISGLQTDDEADYYCGSYTGSPHYVFGTGTKVTVL
Trimeric HA Binding RLU [1]: 43 RLU
Trimeric HA Binding RLU [15]: 48 RLU
Trimeric HA Binding RLU [3]: 2940 RLU
Trimeric HA Binding RLU [4]: 45 RLU
Trimeric HA Binding RLU [5]: 46 RLU
Trimeric HA Binding RLU [8]: 33 RLU
Trimeric HA Binding RLU [12]: 158 RLU
Trimeric HA Binding RLU [14]: 45 RLU
Trimeric HA Binding: RLU [16]: 179 RLU
Trimeric HA Binding: RLU [17]: 771 RLU

B3: TCN-547 (5092_F11) (antibody, V domains shown)
VH: QVQLQESGPGLVKPSQTLSLTCTVSGDSISSVDHYWSWIRQHPVKGLEWIGFMYYSASTYYNPSLKSRVTISTDTSKNQFSLRLSSVTAADTAVYYCARGTCAGDCSLHYYYYGLDVWGQGRTVTVSS
VL: DIQMTQSPSSLSASVGDRVTITCRASQSISSYLNWYQHKPGKAPKVLMYAVSILQSGVPSRFSGSGSGADFTLTISSLQPEDFATYYCQQSYSSPLTFGGGTKVEIK
Trimeric HA Binding RLU [18]: 1080 RLU
Trimeric HA Binding RLU [19]: 6970 RLU
Trimeric HA Binding RLU [20]: 1350 RLU
Trimeric HA Binding RLU [21]: 1470 RLU
Trimeric HA Binding: RLU [22]: 1000 RLU
Trimeric HA Binding: RLU [23]: 170 RLU
Trimeric HA Binding: RLU [24]: 198 RLU

B4: TCN-522 (3212_I12) (antibody, V domains shown)
VH: QVQLQQWGAGLLKPSETLSLTCTVSGGSLTDYSWNWIRQPPGKGLEWIGDTLHNGYTNYNPSLRGRVSISIDTSKNQVSLRLTSVTAADTALYYCARGSGGYGGFDYFGKLRTWDFWGQGTLVTVSS
VL: DIQLTQSPSSLSASVGDRVTITCRASQGIRNDLGWYQQKPGNAPKRLIFGASSLQSGVPSRFSGSGSGTEFTLTISSLQPEDFATYYCLQHNSYPYTFGQGTKLEIK
Trimeric HA Binding: RLU [25]: 302 RLU
Trimeric HA Binding RLU [26]: 17300 RLU
Trimeric HA Binding RLU [27]: 55400 RLU
Trimeric HA Binding RLU [28]: 3350 RLU
Trimeric HA Binding RLU [29]: 11900 RLU
Trimeric HA Binding RLU [30]: 11800 RLU
Trimeric HA Binding RLU [31]: 54400 RLU
Trimeric HA Binding RLU [32]: 48200 RLU
Trimeric HA Binding RLU [33]: 49300 RLU
Trimeric HA Binding RLU [34]: 21400 RLU
Trimeric HA Binding RLU [35]: 37500 RLU
Trimeric HA Binding RLU [36]: 39600 RLU
Trimeric HA Binding RLU [37]: 1050 RLU

B5: TCN-532 (5262_H18) (antibody, V domains shown)
VH: QVQLQESGPGLVKPSETLSLTCTVSGGSVSSETYYWSWIRQPPGKGLEWIGYIYYIGNTDYRPSLKSRVTISLDTSKNQFSLKLSSVTAADTAVYYCARGAYYDSSGYPAFYIWGQGTMVTVSS
VL: QSVLTQPPSVSGAPGQRVTISCTGSSSNIGSDYDVHWYKQLPGTAPKLLIFGNSNRPSGVPDRFSGSKSGTSASLAITGLQAEDEADYYCQSYDSSLSGFHVFGSGTKVTVL
Trimeric HA Binding RLU [1]: 59 RLU
Trimeric HA Binding RLU [38]: 42 RLU
Trimeric HA Binding RLU [3]: 9970 RLU
Trimeric HA Binding RLU [4]: 441 RLU
Trimeric HA Binding RLU [5]: 48 RLU
Trimeric HA Binding RLU [6]: 78 RLU
Trimeric HA Binding RLU [8]: 29 RLU
Trimeric HA Binding RLU [12]: 311 RLU
Trimeric HA Binding RLU [14]: 29 RLU
